Source: patent publication US20240018265A1 (FRIEDRICH MIESCHER INSTITUTE FOR BIOMEDICAL RESEARCH, published 2024)

Columns and labels:
[1] = molecular target: T1, endogenous HDAC6 (A549 cells) (human, UniProt Q9UBN7 1-1215); experiment: GFP-trap immunoprecipitation of GFP-DARPin F10 against control GFP-DARPin E3_5 from A549 cells, mass spectrometry, volcano plot
T1 construct: Endogenous intracellular protein, not a recombinant construct; also called histone deacetylase 6
T1 sequence (looked up): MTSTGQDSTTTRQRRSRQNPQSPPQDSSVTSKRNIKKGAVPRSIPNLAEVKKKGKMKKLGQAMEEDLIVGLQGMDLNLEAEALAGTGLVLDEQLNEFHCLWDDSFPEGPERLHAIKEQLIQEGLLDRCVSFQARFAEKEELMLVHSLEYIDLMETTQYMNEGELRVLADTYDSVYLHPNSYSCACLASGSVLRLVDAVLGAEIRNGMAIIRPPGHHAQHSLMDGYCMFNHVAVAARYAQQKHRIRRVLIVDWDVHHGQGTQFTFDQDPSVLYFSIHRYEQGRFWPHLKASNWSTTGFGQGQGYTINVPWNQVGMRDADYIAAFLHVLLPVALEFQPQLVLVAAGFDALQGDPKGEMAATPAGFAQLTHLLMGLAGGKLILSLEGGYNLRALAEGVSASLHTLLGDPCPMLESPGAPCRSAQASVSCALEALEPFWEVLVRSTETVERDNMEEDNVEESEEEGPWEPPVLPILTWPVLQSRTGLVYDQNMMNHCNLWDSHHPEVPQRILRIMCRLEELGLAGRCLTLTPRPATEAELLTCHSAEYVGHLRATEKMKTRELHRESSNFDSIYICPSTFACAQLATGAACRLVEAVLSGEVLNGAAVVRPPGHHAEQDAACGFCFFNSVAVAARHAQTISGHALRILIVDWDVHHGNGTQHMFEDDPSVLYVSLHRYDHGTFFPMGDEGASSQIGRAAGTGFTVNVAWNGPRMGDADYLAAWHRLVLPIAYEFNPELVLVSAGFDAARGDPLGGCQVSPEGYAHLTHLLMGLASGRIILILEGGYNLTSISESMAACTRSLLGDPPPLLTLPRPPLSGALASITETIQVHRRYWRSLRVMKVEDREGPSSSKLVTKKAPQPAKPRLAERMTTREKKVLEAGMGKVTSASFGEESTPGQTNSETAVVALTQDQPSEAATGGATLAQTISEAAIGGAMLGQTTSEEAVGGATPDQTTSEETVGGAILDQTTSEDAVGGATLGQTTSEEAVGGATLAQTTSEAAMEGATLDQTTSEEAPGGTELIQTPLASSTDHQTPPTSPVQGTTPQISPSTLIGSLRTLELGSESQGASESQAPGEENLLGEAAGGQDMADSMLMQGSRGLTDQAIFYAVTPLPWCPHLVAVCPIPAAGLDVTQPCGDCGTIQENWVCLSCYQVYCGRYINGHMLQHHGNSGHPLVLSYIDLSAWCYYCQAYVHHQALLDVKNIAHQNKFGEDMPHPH
Source text: (§1) [0013] (A) Schematic of HDAC6, showing the catalytic domains (CD1, CD2) and the zinc finger domain (ZnF) region that was expressed (amino acids 1108 to 1215) and used to identify binders. Generic nanobody and DARPin structures (PDB:1I3V and PDB:2QJY, respectively) are shown below. […] [0014] […] PD, pull-down; FT, flow-through. [0015] […] A plasmid expressing mRuby was included in all transfections as a control for transfection efficiency (red signal). Scale bar presents […]. [0016] […] [0017] […] Immunoprecipitated material (from D above) was analysed by mass spectrometry and enriched proteins are annotated.

GFP(10)-ubiquitin = molecular target: T2, GFP(10)-ubiquitin (UniProt P0CG48 1-76); experiment: split-GFP assay in 293T cells (specificity control)
T2 construct: Expressed in 293T cells; not shown: GFP beta strand 10 and any linker

[2] = molecular target: T3, Purified His-tagged human HDAC6 ZnF domain (1108-1215) (human, UniProt Q9UBN7 1108-1215); experiment: pull-down with anti-Flag agarose beads from a mix of His-ZnF (1108-1215), Flag-DARPin and mono-ubiquitin; immunoblot with anti-His, anti-ubiquitin and anti-Flag
T3 construct: range 1108-1215; also called ZnF-UBP; His-HDAC6 ZnF (1108-1215); not shown: His tag from vector pOPINF
T3 sequence (looked up): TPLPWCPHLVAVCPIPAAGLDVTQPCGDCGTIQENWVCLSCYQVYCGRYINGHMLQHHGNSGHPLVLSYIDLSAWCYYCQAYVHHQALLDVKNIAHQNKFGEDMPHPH
Source text: as §1

B1: GFP-DARPin F10 fusion protein (designed binder)
chain: DLGKKLLEAARAGQDDEVRILMANGADVNANDRNGVTPLHLAADKGHLEIVEVLLKTGADVNAIDIMGATPLHLAAAHGHLEIVEVLLKAGADVNAMDHKGFTPLHLAAWRGHLEIVEVLLKHGADVNAQDKFGKTPFDLAIDNGNEDIAEVLQKAA
notes: Transiently expressed in A549 cells from pcDNA3.1-GFP-DARPin F10; not shown: GFP and any linker
Does B1 bind [1]?
Result: binds

B2: GFP(11)-HDAC6 ZnF (1108-1215) W1182A mutant (other, human, UniProt Q9UBN7 1108-1215, looked up)
chain: TPLPWCPHLVAVCPIPAAGLDVTQPCGDCGTIQENWVCLSCYQVYCGRYINGHMLQHHGNSGHPLVLSYIDLSAACYYCQAYVHHQALLDVKNIAHQNKFGEDMPHPH
notes: range 1108-1215; Specificity control in the split-GFP assay; also called ZnFm; 1182 mutant; not shown: GFP beta strand 11 and any linker
Does B2 bind (GFP(10)-ubiquitin)?
Result: no binding

B3: Flag-tagged DARPin F10 (F10 with histidine and detection tags) (designed binder)
chain: MRGSHHHHHHHHGSDLGKKLLEAARAGQDDEVRILMANGADVNANDRNGVTPLHLAADKGHLEIVEVLLKTGADVNAIDIMGATPLHLAAAHGHLEIVEVLLKAGADVNAMDHKGFTPLHLAAWRGHLEIVEVLLKHGADVNAQDKFGKTPFDLAIDNGNEDIAEVLQKAAKLNDYKDDDDK
Does B3 bind [2]?
Result: binds
